Assay results as given in patent publication US20240325555A1 (LANOVA MEDICINES, published 2024).

T1: human LIV-1 (human, UniProt Q13433 29-755)
T1 sequence (looked up): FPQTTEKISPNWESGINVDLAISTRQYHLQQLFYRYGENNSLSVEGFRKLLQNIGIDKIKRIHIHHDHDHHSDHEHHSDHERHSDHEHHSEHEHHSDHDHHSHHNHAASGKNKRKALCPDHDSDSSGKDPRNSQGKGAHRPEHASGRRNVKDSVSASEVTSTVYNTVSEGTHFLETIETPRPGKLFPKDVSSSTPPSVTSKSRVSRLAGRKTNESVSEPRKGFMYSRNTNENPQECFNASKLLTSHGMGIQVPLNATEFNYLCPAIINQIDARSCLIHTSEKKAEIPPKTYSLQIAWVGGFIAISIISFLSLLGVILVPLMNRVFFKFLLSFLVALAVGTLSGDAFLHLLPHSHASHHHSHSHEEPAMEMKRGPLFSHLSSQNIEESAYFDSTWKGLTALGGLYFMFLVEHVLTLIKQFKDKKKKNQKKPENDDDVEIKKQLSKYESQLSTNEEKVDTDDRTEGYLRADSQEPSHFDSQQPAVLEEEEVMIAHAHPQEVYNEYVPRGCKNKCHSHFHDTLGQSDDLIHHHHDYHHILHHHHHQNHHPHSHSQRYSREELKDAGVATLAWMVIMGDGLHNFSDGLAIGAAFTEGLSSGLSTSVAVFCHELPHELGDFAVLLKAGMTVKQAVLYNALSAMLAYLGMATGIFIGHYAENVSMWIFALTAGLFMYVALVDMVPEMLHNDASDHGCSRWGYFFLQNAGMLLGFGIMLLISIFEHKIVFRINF


Key:
human LIV-1 [1] = target: T1, human LIV-1; assay: cell-based or functional assay
human LIV-1 [2] = target: T1, human LIV-1; assay: cell-based or functional assay; remark: listed apart in the source
human LIV-1 [3] = target: T1, human LIV-1; assay: cell-based or functional assay; remark: listed apart in the source
human LIV-1 [4] = target: T1, human LIV-1; assay: FACS, HEK293/H_LIV-1 cells
How it was run: (§1)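 HEK293 cells over-expressing human or cyno LIV-1 incubated with chimeric Abs (from 100 nM, 5-fold dilutions, 8 points) for 60 min at 4 °C, then fluorescent secondary antibody 30 min at 4 °C; washes in 2% FBS/PBS. Binding read by flow cytometry; EC50 from the titration curve.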

cynomolgus LIV-1 = cynomolgus LIV-1 (cynomolgus, UniProt A0A2K5WH46 30-741); assay: FACS, HEK293/Cyno_LIV-1 cells
How it was run: as §1

human LIV-1 [5] = target: T1, human LIV-1; assay: cell-based or functional assay; remark: listed apart in the source
human LIV-1 [6] = target: T1, human LIV-1; assay: FACS, HEK293/H_LIV-1 cells; remark: listed apart in the source
Method: (§2) Cell based binding of ADC and naked of ADC on human LIV-1 expressing cells were assessed using flow cytometry. Briefly, HEK293/H_LIV-1, both low- and high-expressing H-LIV1-positive cell lines were incubated with ADC and naked of ADC (from 100 nM, 6 folds dilution, 8 points), respectively. After incubation at 4° C. for 60 minutes, the cells were washed with FACS buffer twice, then stained with fluorescent conjugated secondary antibody at 4° C. for 30 minutes. After that the cells were washed twice and analyzed by flow cytometry.

human LIV-1 [7] = target: T1, human LIV-1; assay: FACS, BT20/H_LIV-1 Low cells
Method: as §2

human LIV-1 [8] = target: T1, human LIV-1; assay: FACS, BT20/H_LIV-1 High cells
Method: as §2

Row | Binder | ADCC reporter EC50 (human LIV-1 [1]) [pM] | ADCC reporter Top (RFU) (human LIV-1 [1]) | Internalization EC50 (human LIV-1 [2]) [pM] | Internalization Top (RFU) (human LIV-1 [2]) | Cell viability(%) (human LIV-1 [3]) | Cytotoxicity IC50 (human LIV-1 [3]) [pM] | EC50 (human LIV-1 [4]) [pM] | Top (MFI) (human LIV-1 [4]) | EC50 (cynomolgus LIV-1) [pM] | Top (MFI) (cynomolgus LIV-1) | Min cell viability %, BT20/H_LIV-1 High (human LIV-1 [5]) [%] | Min cell viability %, BT20/H_LIV-1 Low (human LIV-1 [5]) [%] | Min cell viability %, HEK293/H_LIV-1 (human LIV-1 [5]) [%] | EC50 (human LIV-1 [6]) [pM] | Top (MFI) (human LIV-1 [6]) | EC50 (human LIV-1 [7]) [pM] | Top (MFI) (human LIV-1 [7]) | EC50 (human LIV-1 [8]) [pM] | Top (MFI) (human LIV-1 [8])
1 | 282G5A2 (antibody, V domains shown, Tested as chimeric antibody) VH: QVQLQQSGAELVRPGTSVKVSCKASGYALTKYLIEWIKQRPGQGLEWIGVINPGNAGNNYNEKFKGKATLTVDQSSSTAYMQLSSLTSEDSAVYFCARRGRDYAMDNWGQGTSVTVSS VL: EIVLTQSPAIMSASLGEKVTMSCRASSSINYIYWYQQKSDASPKLWIYYTSNLAPGVPARFSGSGSGNSYSLTISSMEDEDAATYYCQQFTSSPLTFGAGTKLELK | 1200 | 11300 | 41200 | 227000 | 8.58 | 12100 | 1120 | 19700 | 870 | 13000 |  |  |  |  |  |  |  |  | 
2 | 248H1G3 (antibody, V domains shown, Tested as chimeric antibody) VH: EVQLQQSGPELMKRGASVKISCKTSTFTFTEFTIHWVKQSHGKSLEWIGGINPNTGGTSYNQNFTGKATLTVDKSSITAYMELRSLTSEDSAIYYCAPNWDGYWFFDVWGAGTTVTVSS VL: DIQMTQSPASLSASVGETVTITCRASGNIQNYLAWYQQKQGKSPQLLVYGAKTLADGVPSRFSGSGSGTQFSLKINSLQPEDFGSYYCQHFWSPPLTFGAGTKLELK | 500 | 61600 | 4600 | 357000 | 3.31 | 2990 | 890 | 9640 | 2050 | 2700 |  |  |  |  |  |  |  |  | 
3 | 5D6B10.z7-Eribulin (antibody, V domains shown, Eribulin drug moiety conjugated; site and chain not stated, Antibody-drug conjugate of 5D6B10.z7; human gamma 1/kappa) VH: QVQLVQSGGGVVQPGRSLRLSCTVSGFSLTTYGIHWVRQSPGKGLEWLGVIWTGGTTDYNAAFISRLTISKDNSKSTVYFQMNSLQAEDTAIYYCARGPSSYWGQGTLVTVSS VL: EIVMTQSPATLSVSPGERATLSCKASQNVDTNVVWYQQKPGQSPRALIYSASYRYSGVPARFSGSGSGTEFTLTISSLQSEDFAVYFCQQYNNYPWTFGQGTKVEIK |  |  |  |  |  |  |  |  |  |  | 31.5 | 42.9 | 21.2 | 470 | 98700 | 500 | 37200 | 870 | 154000
4 | 5D6B10.z7-MMAE (antibody, V domains shown, MMAE drug moiety conjugated; site and chain not stated, Antibody-drug conjugate of 5D6B10.z7; human gamma 1/kappa) VH: QVQLVQSGGGVVQPGRSLRLSCTVSGFSLTTYGIHWVRQSPGKGLEWLGVIWTGGTTDYNAAFISRLTISKDNSKSTVYFQMNSLQAEDTAIYYCARGPSSYWGQGTLVTVSS VL: EIVMTQSPATLSVSPGERATLSCKASQNVDTNVVWYQQKPGQSPRALIYSASYRYSGVPARFSGSGSGTEFTLTISSLQSEDFAVYFCQQYNNYPWTFGQGTKVEIK |  |  |  |  |  |  |  |  |  |  | 28.4 | 43.5 | 15 | 510 | 96400 | 500 | 35300 | 980 | 149000
5 | 124H4D11.p2.z4-Eribulin (antibody, V domains shown, Eribulin drug moiety conjugated; site and chain not stated, Antibody-drug conjugate of 124H4D11.p2.z4; human gamma 1/kappa) VH: QVQLVQSGAEVVKPGASVKVSCKASGFNIKDYYMHWVRQAPGQGLEWIGWIDPENDDTEYDPKFQGRVTMTADTSTSTVYMELSSLRSEDTAVYYCAARYYAFDYWGQGTMVTVSS VL: DVLMTQSPLSLPVTLGQPASISCRSSQSIVHSNANTYLEWYLQRPGQSPRLLIYKVSNRFSGVPDRFSGSGSGTDFTLKISRVEAEDVGVYYCFQGSQVPPTFGQGTKLEIK |  |  |  |  |  |  |  |  |  |  | 20.7 | 37.9 | 21.5 | 100 | 19400 | 50 | 3100 | 100 | 19200
6 | 124H4D11.p2.z4-MMAE (antibody, V domains shown, MMAE drug moiety conjugated; site and chain not stated, Antibody-drug conjugate of 124H4D11.p2.z4; human gamma 1/kappa) VH: QVQLVQSGAEVVKPGASVKVSCKASGFNIKDYYMHWVRQAPGQGLEWIGWIDPENDDTEYDPKFQGRVTMTADTSTSTVYMELSSLRSEDTAVYYCAARYYAFDYWGQGTMVTVSS VL: DVLMTQSPLSLPVTLGQPASISCRSSQSIVHSNANTYLEWYLQRPGQSPRLLIYKVSNRFSGVPDRFSGSGSGTDFTLKISRVEAEDVGVYYCFQGSQVPPTFGQGTKLEIK |  |  |  |  |  |  |  |  |  |  | 18.6 | 40.3 | 15.8 | 80 | 20200 | 70 | 3420 | 110 | 20000
7 | 286B5E6 (antibody, V domains shown, Tested as chimeric antibody) VH: not shown VL: DIVLTQSPASLAVSLGQRATISCKASQSVDYDGDSYMNWYQQKPGQPPKLLIYAASNLESGIPARFSGSGSGTDFTLNIHPVEEEDAATYYCQQSNEGPYTFGGGTKLEIK | 1100 | 47800 | 4600 | 448000 | 4.88 | 1390 | 320 | 8090 | 550 | 2490 |  |  |  |  |  |  |  |  | 
8 | 293F10B6 (antibody, V domains shown, Tested as chimeric antibody) VH: QVTLKESGPGMLQPSQTLNLTCSFSGFSLNTSGMGVSWIRQPSGKGLEWLAHIFWDDDKRYNPSLKSRLTISKDVSSNQVFLKITSVDTADTATYFCARRARNNYPWFPYWGQGTLVTVSA VL: DIVLTQSPASLAVSLGQRATISCKASQSVDYDGDSYMNWYQQKPGQPPKLLIYAASNLDSGIPARFSGSGSGTDFTLNIHPMEDEDVATYYCQQSNGAPFTFGGGTKLEIK | 7900 | 133000 | 6100 | 495000 | 3.41 | 1460 | 450 | 8100 | 980 | 2250 |  |  |  |  |  |  |  |  | 
9 | 290F10G10.z2-Eribulin (antibody, V domains shown, Eribulin drug moiety conjugated; site and chain not stated) VH: EVQLVQSGAEVKKPGASVKVSCKASGYTFTSYWIHWVRQAPGQGLEWMGTIYPGDADTRSTQKFKDRVTMTADTSTSTVYMELSSLRSEDTAVYYCARSLIHDDYDKYYFDYWGQGTTVTVSS VL: DIQMTQSPSSLSASVGDRVTITCKARQDINKYIAWYQQKPGKAPKLLIHYTSILQPGIPSRFSGSGSGRDYTFTISSLQPEDIATYYCLQYDYFFTFGGGTKVEIK |  |  |  |  |  |  |  |  |  |  | 17.6 | 38.4 | 18.4 | 550 | 18800 | 1140 | 3620 | 1200 | 21000
